Data: patent US20130243802A1 (ATLANTIC RESEARCH CENTER INSTITUTE, published 2013)

B1: bMBP 100-117 peptide (peptide)
peptide: PSQGKGRGLSLSRFSWGA
notes: Synthetic peptide (New England Peptide)
B2: bovine myelin basic protein (other, UniProt P02687 1-169, looked up)
chain: AAQKRPSQRSKYLASASTMDHARHGFLPRHRDTGILDSLGRFFGSDRGAPKRGSGKDGHHAARTTHYGSLPQKAQGHRPQDENPVVHFFKNIVTPRTPPPSQGKGRGLSLSRFSWGAEGQKPGFGYGGRASDYKSAHKGLKGHDAQGTLSKIFKLGGRDSRSGSPMARR
notes: also called bMBP; MBP
B3: MBP 62-78 peptide (peptide)
peptide: ARTTHYGSLPQKAQGHR
notes: range 62-78; Synthetic candidate peptide; also called MBP peptide 1 (62-78)

Key:
[1] = target: T1, Recombinant Mycobacterium tuberculosis HSP70 (Aalto, Eire) (Mycobacterium tuberculosis, UniProt P9WMJ9 1-625); assay: CHIEF gel
T1 construct: also called mtHSP70; Mycobacteria HSP70
T1 sequence (P9WMJ9 whole entry): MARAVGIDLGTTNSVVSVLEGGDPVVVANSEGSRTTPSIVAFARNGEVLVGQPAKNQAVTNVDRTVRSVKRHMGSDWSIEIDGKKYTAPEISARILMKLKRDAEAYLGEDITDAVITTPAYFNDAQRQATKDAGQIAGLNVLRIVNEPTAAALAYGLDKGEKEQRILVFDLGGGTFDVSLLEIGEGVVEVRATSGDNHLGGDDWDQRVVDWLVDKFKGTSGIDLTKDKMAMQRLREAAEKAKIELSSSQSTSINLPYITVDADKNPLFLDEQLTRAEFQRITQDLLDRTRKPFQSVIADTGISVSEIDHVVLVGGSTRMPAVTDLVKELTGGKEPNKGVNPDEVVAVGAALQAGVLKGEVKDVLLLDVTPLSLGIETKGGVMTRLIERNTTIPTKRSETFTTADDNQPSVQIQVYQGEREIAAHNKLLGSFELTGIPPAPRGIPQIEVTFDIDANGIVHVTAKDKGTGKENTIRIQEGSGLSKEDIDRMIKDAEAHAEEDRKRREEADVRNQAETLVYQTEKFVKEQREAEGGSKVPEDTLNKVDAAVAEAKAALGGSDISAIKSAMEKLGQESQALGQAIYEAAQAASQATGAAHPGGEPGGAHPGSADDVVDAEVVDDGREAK

E. coli orthologue, dnaK = E. coli orthologue, dnaK (E. coli, UniProt P0A6Y8 2-638); assay: CHIEF (counter HSP isoelectric focusing) gel
Chain of E. coli orthologue, dnaK (P0A6Y8 2-638 limits assumed): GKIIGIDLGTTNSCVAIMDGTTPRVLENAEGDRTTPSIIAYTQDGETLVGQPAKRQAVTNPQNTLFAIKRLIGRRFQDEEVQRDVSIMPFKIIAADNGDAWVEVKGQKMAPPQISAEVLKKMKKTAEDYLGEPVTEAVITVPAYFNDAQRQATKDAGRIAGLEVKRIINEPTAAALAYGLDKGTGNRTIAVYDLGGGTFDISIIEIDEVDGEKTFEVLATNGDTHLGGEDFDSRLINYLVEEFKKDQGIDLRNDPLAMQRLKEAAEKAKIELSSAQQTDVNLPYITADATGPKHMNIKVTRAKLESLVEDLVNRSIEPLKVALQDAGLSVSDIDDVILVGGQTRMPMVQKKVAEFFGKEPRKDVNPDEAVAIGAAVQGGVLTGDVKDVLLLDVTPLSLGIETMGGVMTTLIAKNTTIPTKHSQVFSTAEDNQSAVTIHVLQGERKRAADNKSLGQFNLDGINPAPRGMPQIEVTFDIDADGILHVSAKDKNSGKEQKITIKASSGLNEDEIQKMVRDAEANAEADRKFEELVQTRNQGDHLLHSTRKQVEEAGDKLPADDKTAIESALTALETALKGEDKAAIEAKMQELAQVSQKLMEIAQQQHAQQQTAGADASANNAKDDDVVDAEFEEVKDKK

Row | Binder | binding result [1] | binding result (E. coli orthologue, dnaK)
1 | B1 | binds | 
2 | B2 | binds | no binding
3 | B3 | no binding | 
